In publication PMC6128908, “Potent PDZ-Domain PICK1 Inhibitors that Modulate Amyloid Beta-Mediated Synaptic Dysfunction” (Scientific Reports, 2018):
Where no end group is shown, it is not given here.

How the values were obtained:
[1] = molecular target: T1, His-MBP PICK1 construct (amino acids 1–356) (UniProt Q9NRD5 1-356); test: FRET or BRET; high throughput screen with a FRET-based readout: His-MBP PICK1 (1–356) and FITC-labelled 9 amino acid GluA2 C-terminal peptide; compounds at 50 μM; conditions: both partners purified
T1 construct: it is used here for both assays; Details of the construct are in Supplemental Methods; also called truncated, dimeric form of PICK1 lacking the last 59 residues; source: baculovirus expression, purified (Nickel chromatography, size exclusion chromatography)

[2] = molecular target: T2, PSD95 protein (domains 1–2 in tandem; aminoacids 61–249) (UniProt P78352 61-249); test: fluorescence polarisation; competition FP: FITC-labeled peptides fixed at 5 nM, non-saturating protein concentrations (PICK1 600 nM; PSD95 PDZ 1–2 8 µM; Shank3 8 µM), unlabeled peptides or compound varied; normalised to binding and tracer-only controls; conditions: both partners purified
T2 construct: PSD95 (postsynaptic density 95), PDZ domains 1-2 in tandem, amino acids 61-249; also called postsynaptic density 95 (PSD95) PDZ 1–2; source: E. coli, purified
T2 sequence (P78352 61-249): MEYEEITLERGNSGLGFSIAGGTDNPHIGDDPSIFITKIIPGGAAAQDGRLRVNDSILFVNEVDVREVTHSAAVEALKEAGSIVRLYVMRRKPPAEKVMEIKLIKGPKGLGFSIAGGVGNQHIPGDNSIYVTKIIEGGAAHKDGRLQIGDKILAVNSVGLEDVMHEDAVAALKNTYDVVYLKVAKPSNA

T1 sequence (Q9NRD5 1-356): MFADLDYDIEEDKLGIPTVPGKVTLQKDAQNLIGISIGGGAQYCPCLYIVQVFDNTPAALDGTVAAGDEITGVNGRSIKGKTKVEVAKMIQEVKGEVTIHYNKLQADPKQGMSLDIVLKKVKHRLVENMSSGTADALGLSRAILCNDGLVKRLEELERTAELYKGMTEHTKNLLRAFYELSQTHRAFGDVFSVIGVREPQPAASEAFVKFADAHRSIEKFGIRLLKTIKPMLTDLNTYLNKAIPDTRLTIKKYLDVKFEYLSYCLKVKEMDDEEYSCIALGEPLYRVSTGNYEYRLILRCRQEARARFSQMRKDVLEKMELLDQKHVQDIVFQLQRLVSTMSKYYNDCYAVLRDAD

B1: FITC-labeled 9 amino acid C-terminal peptide of GluA2 (875–883) (peptide, UniProt P42262 875-883, looked up)
peptide: VYGIESVKI
modifications: also: FITC label, position not given here
notes: AMPA receptor subunit GluA2, C-terminal 9 amino acids, residues 875-883; also called GluA2 peptide; Fluorescein isothiocyanate-labeled peptide comprising the C-terminal amino acids of GluA2
Q: Does B1 bind [1]?
A: binds

B2: FITC-labeled GluN2B peptide (N-methyl-D-aspartate receptor subunit 2B, 1474–1482) (peptide)
peptide: KLSSIESDV
modifications: also: FITC label, position not given here
notes: N-methyl-D-aspartate receptor subunit 2B (GluN2B), C-terminal amino acids 1474-1482
Q: Does B2 bind [2]?
A: binds
